From publication PMC4126800 (Nature, 2014)

Target: the molecule itself
Test: SAXS

B1: Human CD81 large extracellular loop (CD81 LEL, residues 112-202) (domain or fragment)
chain: GFVNKDQIAKDVKQFYDQALQQAVVDDDANNAKAVVKTFHETLDCCGSSTLTALTTSVLKNNLCPSGSNIISNLFKEDCHQKIDDLFSGKL
With B1 the “stoichiometry N” value was 2.
